Experimental data published in the Immune Epitope Database (IEDB).

Assays:
HLA-C*08:02 = experiment: IEDB peptide-MHC binding, purified MHC/direct/fluorescence; filed as Kd, often an IC50 or EC50 that approximates it; ≥ and ≤ were set here for values at or beyond the usual limits of such assays; details: source organism: Giardia lamblia ATCC 50803
HLA-A*01:01 = experiment: as above
HLA-C*04:01 = experiment: IEDB peptide-MHC binding, purified MHC/competitive/fluorescence; filed as Kd, often an IC50 or EC50 that approximates it; ≥ and ≤ were set here for values at or beyond the usual limits of such assays; details: source organism: Giardia lamblia ATCC 50803
HLA-B*45:06 = experiment: as above; details: source organism: Giardia lamblia ATCC 50803
HLA-B*15:42 = experiment: as above; details: source organism: Giardia lamblia ATCC 50803
HLA-B*83:01 = experiment: as above; details: source organism: Giardia lamblia ATCC 50803
HLA-A*68:23 = experiment: as above; details: source organism: Giardia lamblia ATCC 50803
HLA-B*57:01 [1] = experiment: IEDB peptide-MHC binding, purified MHC/direct/fluorescence; filed as Kd, often an IC50 or EC50 that approximates it; ≥ and ≤ were set here for values at or beyond the usual limits of such assays; details: source organism: Marburg virus - Musoke, Kenya, 1980
HLA-A*69:01 = experiment: as above; details: source organism: Marburg virus - Musoke, Kenya, 1980
HLA-B*08:01 = experiment: as above; details: source organism: Orthomarburgvirus marburgense
HLA-B*07:02 = experiment: as above; details: source organism: Marburg virus - Musoke, Kenya, 1980
HLA-B*15:01 = experiment: as above; details: source organism: Marburg virus - Musoke, Kenya, 1980
HLA-A*11:01 = experiment: as above; details: source organism: Marburg virus - Musoke, Kenya, 1980
HLA-B*58:01 [2] = experiment: as above; details: source organism: Marburg virus - Musoke, Kenya, 1980
HLA-B*48:01 = experiment: as above; details: source organism: Marburg virus - Musoke, Kenya, 1980
HLA-B*15:17 = experiment: as above; details: source organism: Marburg virus - Musoke, Kenya, 1980
HLA-A*31:01 = experiment: as above; details: source organism: Marburg virus - Musoke, Kenya, 1980
HLA-B*46:01 = experiment: as above; details: source organism: Marburg virus - Musoke, Kenya, 1980
HLA-A*68:02 = experiment: as above; details: source organism: Marburg virus - Musoke, Kenya, 1980
HLA-B*27:05 = experiment: as above; details: source organism: Marburg virus - Musoke, Kenya, 1980
HLA-A*02:01 = experiment: as above; details: source organism: Marburg virus - Musoke, Kenya, 1980
HLA-B*15:02 = experiment: as above; details: source organism: Orthomarburgvirus marburgense
HLA-A*26:02 = experiment: IEDB peptide-MHC binding, purified MHC/competitive/fluorescence; filed as Kd, often an IC50 or EC50 that approximates it; ≥ and ≤ were set here for values at or beyond the usual limits of such assays; details: source organism: Orthomarburgvirus marburgense
HLA-B*57:01 [3] = experiment: as above; details: source organism: Human herpesvirus 4 strain B95-8
HLA-B*58:01 [4] = experiment: as above; details: source organism: Human herpesvirus 4 strain B95-8
HLA-A*23:01 = experiment: as above; details: source organism: Human herpesvirus 4 strain B95-8

## MTDVDLNYY
HLA-C*08:02
  Kd: ≥ 20 µM
HLA-A*01:01; source organism: Giardia lamblia ATCC 50803
  Kd: ≤ 0.001 µM
HLA-C*04:01
  Kd: ≥ 5 µM
HLA-B*45:06
  Kd: ≥ 5 µM
HLA-B*15:42
  Kd: ≥ 5 µM
HLA-B*83:01
  Kd: ≥ 5 µM
HLA-A*68:23
  Kd: 0.002 µM

## NQQVTNSKY
HLA-B*57:01 [1]
  Kd: ≥ 20 µM
HLA-A*69:01
  Kd: ≥ 20 µM
HLA-B*08:01
  Kd: ≥ 20 µM
HLA-B*07:02
  Kd: ≥ 20 µM
HLA-B*15:01
  Kd: 0.0803 µM
HLA-A*11:01
  Kd: ≥ 20 µM
HLA-B*58:01 [2]
  Kd: ≥ 20 µM
HLA-B*48:01
  Kd: ≥ 20 µM
HLA-B*15:17
  Kd: ≥ 20 µM
HLA-A*31:01
  Kd: ≥ 20 µM
HLA-B*46:01
  Kd: ≥ 20 µM
HLA-A*68:02
  Kd: ≥ 20 µM
HLA-A*01:01; source organism: Marburg virus - Musoke, Kenya, 1980
  Kd: ≥ 20 µM
HLA-B*27:05
  Kd: ≥ 20 µM
HLA-A*02:01
  Kd: ≥ 20 µM
HLA-B*15:02
  Kd: 0.087 µM
HLA-A*26:02
  Kd: ≥ 20 µM

## VSFIEFVGW
HLA-B*57:01 [3]
  Kd: 0.0249 µM
HLA-B*58:01 [4]
  Kd: 0.0011 µM
HLA-A*23:01
  Kd: 0.0629 µM
